In patent US6440461B1, “Poly(methylidene malonate) microspheres, preparation method and pharmaceutical compositions containing them” (Virsol, priority 1998, dated 2002):

System: C3H mice
Assay: Oral tolerance induction: survival of mice after sensitisation to ovalbumin by subcutaneous injection
Type: in vivo
Settings: 100 micrograms ovalbumin per mouse per day over 5 consecutive days, last dose 7 days before s.c. sensitisation with free ovalbumin (100 micrograms per mouse) on D0 and D14
Procedure: This preparation is administered via the oral route to C3H mice at the dose of 100 micrograms of encapsulated ovalbumin (per mouse per day) over 5 consecutive days. The last oral administration took place 7 days before the sensitisation of the animals to ovalbumin which is carried out by subcutaneous injection of free ovalbumin (100 micrograms per mouse) on days DO and D14. 90% of the mice survive the second injection while less than 30% of the mice administered with the microspheres without ovalbumin or with the same dose of non-encapsulated ovalbumin survive.

B1: ovalbumin (protein, UniProt P01012 2-386, looked up)
Ovalbumin: GSIGAASMEFCFDVFKELKVHHANENIFYCPIAIMSALAMVYLGAKDSTRTQINKVVRFDKLPGFGDSIEAQCGTSVNVHSSLRDILNQITKPNDVYSFSLASRLYAEERYPILPEYLQCVKELYRGGLEPINFQTAADQARELINSWVESQTNGIIRNVLQPSSVDSQTAMVLVNAIVFKGLWEKAFKDEDTQAMPFRVTEQESKPVQMMYQIGLFRVASMASEKMKILELPFASGTMSMLVLLPDEVSGLEQLESIINFEKLTEWTSSNVMEERKIKVYLPRMKMEEKYNLTSVLMAMGITDVFSSSANLSGISSAESLKISQAVHAAHAEINEAGREVVGSAEAGVDAASVSEEFRADHPFLFCIKHIATNAVLFFGRCVSP
Question: For B1, which “mice surviving the second injection of free ovalbumin” value is on record?
Answer: less than 30%
